Measured values published in patent US20170007671A1.

Target: Neuregulin-1 receptors (ErbB3 or ErbB4) on MCF-7 human breast cancer cells
Experiment: cell-based or functional assay

B1: recombinant human Neuregulin-1 (rhNRG-1) (ligand)
chain: SHLVKCAEKEKTFCVNGGECFMVKDLSNPSRYLCKCPNEFTGDRCQNYVMASFYKAEELYQ
- Biological activity; ErbB2 phosphorylation ELISA on MCF-7 cell lysates; Reference Sample (0 g/L HSA): 1500 U
- Biological activity; ErbB2 phosphorylation ELISA on MCF-7 cell lysates; Sample A (0.5 g/L HSA): 1730 U
- Biological activity; ErbB2 phosphorylation ELISA on MCF-7 cell lysates; Sample B (2 g/L HSA): 3500 U
- Biological activity; ErbB2 phosphorylation ELISA on MCF-7 cell lysates; Sample C (8 g/L HSA): 4000 U
- EC50 value; ErbB2 phosphorylation ELISA on MCF-7 cell lysates; Reference Sample (0 g/L HSA): 0.0505
- EC50 value; ErbB2 phosphorylation ELISA on MCF-7 cell lysates; Sample A (0.5 g/L HSA): 0.0439
- EC50 value; ErbB2 phosphorylation ELISA on MCF-7 cell lysates; Sample B (2 g/L HSA): 0.0217
- EC50 value; ErbB2 phosphorylation ELISA on MCF-7 cell lysates; Sample C (8 g/L HSA): 0.0189
- OD50 value; ErbB2 phosphorylation ELISA on MCF-7 cell lysates; Reference Sample (0 g/L HSA): 0.391 OD
- OD50 value; ErbB2 phosphorylation ELISA on MCF-7 cell lysates; Sample A (0.5 g/L HSA): 0.393 OD
- OD50 value; ErbB2 phosphorylation ELISA on MCF-7 cell lysates; Sample B (2 g/L HSA): 0.406 OD
- OD50 value; ErbB2 phosphorylation ELISA on MCF-7 cell lysates; Sample C (8 g/L HSA): 0.424 OD
- Standard sample EC50/sample EC50; ErbB2 phosphorylation ELISA on MCF-7 cell lysates; Sample A (0.5 g/L HSA) against Reference Sample: 1.15
- Standard sample EC50/sample EC50; ErbB2 phosphorylation ELISA on MCF-7 cell lysates; Sample B (2 g/L HSA) against Reference Sample: 2.33
- Standard sample EC50/sample EC50; ErbB2 phosphorylation ELISA on MCF-7 cell lysates; Sample C (8 g/L HSA) against Reference Sample: 2.67
- specific activity; ErbB2 phosphorylation ELISA on MCF-7 cell lysates; Reference Sample (0 g/L HSA): 6000 U/mg
- specific activity; ErbB2 phosphorylation ELISA on MCF-7 cell lysates; Sample A (0.5 g/L HSA): 6900 U/mg
- specific activity; ErbB2 phosphorylation ELISA on MCF-7 cell lysates; Sample B (2 g/L HSA): 14000 U/mg
- specific activity; ErbB2 phosphorylation ELISA on MCF-7 cell lysates; Sample C (8 g/L HSA): 16000 U/mg
